Here are results for 43 sequences from the Immune Epitope Database (IEDB).

Test [1] has as its target HLA-A*68:02. Nature of the test: IEDB peptide-MHC binding, purified MHC/competitive/fluorescence; filed as Kd, often an IC50 or EC50 that approximates it; ≥ and ≤ were set here for values at or beyond the usual limits of such assays.
The target in test [2] is HLA-A*68:02. The test is described as follows: IEDB peptide-MHC binding, purified MHC/competitive/radioactivity; filed as Kd, often an IC50 or EC50 that approximates it; ≥ and ≤ were set here for values at or beyond the usual limits of such assays.
Test [3] concerns the target HLA-A*02:03. The test is described as above.
For test [4], the target named is HLA-A*02:01. The description is as above.
In test [5] the target is HLA-A*24:03. Nature of the test: IEDB peptide-MHC binding, purified MHC/direct/fluorescence; filed as Kd, often an IC50 or EC50 that approximates it; ≥ and ≤ were set here for values at or beyond the usual limits of such assays.
In test [6] the target is HLA-B*15:03. Nature of the test: IEDB peptide-MHC binding, purified MHC/competitive/radioactivity; filed as Kd, often an IC50 or EC50 that approximates it; ≥ and ≤ were set here for values at or beyond the usual limits of such assays.
The target in test [7] is HLA-B*08:01. The description is as above.
Test [8] deals with HLA-A*30:01. Described as above.
Test [9] deals with HLA-B*15:01. The description is as above.
Test [10] concerns the target HLA-A*32:01. The test is described as above.
Test [11] deals with HLA-B*51:01. The test is described as follows: IEDB peptide-MHC binding, purified MHC/competitive/fluorescence; filed as Kd, often an IC50 or EC50 that approximates it; ≥ and ≤ were set here for values at or beyond the usual limits of such assays. The settings on record: source organism: Homo sapiens.
For test [12], the target named is HLA-A*69:01. The test is described as above.
Test [13] has as its target HLA-B*39:01. The description is as above. The settings on record: source organism: Homo sapiens.
Test [14] deals with HLA-B*27:03. Described as above. The settings on record: source organism: Homo sapiens.
Test [15] deals with HLA-B*46:01. The description is as above. The settings on record: source organism: Homo sapiens.
Test [16] addresses HLA-B*57:01. The test is described as above. Particulars: source organism: Homo sapiens.
For test [17], the target named is HLA-B*15:17. The test is described as above. The settings on record: source organism: Homo sapiens.
Test [18] addresses HLA-A*26:01. Described as above. Particulars: source organism: Homo sapiens.
The target in test [19] is HLA-B*15:01. The test is described as above. The settings on record: source organism: Homo sapiens.
Test [20] deals with HLA-B*18:01. The description is as above. Particulars: source organism: Homo sapiens.
For test [21], the target named is HLA-A*02:01. The test is described as above. Particulars: source organism: Homo sapiens.
Test [22] concerns the target HLA-A*03:01. The description is as above.
The target of test [23] is HLA-A*02:06. The test is described as follows: IEDB peptide-MHC binding, purified MHC/competitive/radioactivity; filed as Kd, often an IC50 or EC50 that approximates it; ≥ and ≤ were set here for values at or beyond the usual limits of such assays.
The target in test [24] is HLA-A*02:02. Described as above.
The target in test [25] is HLA-B*51:01. The test is described as above.
For test [26], the target named is HLA-A*01:01. The test is described as above. The settings on record: source organism: Dengue virus 1 Brazil/97-11/1997.
Test [27] has as its target HLA-B*53:01. The test is described as above. The settings on record: source organism: Dengue virus 3 Martinique/1243/1999.
In test [28] the target is HLA-B*35:01. Described as above. The settings on record: source organism: Dengue virus 3 Martinique/1243/1999.
Test [29] addresses HLA-A*11:01. Nature of the test: IEDB peptide-MHC binding, purified MHC/competitive/fluorescence; ≥ and ≤ were set here for values at or beyond the usual limits of such assays.
Test [30] deals with HLA-A*24:02. The description is as above. The settings on record: source organism: Sudan ebolavirus.
Test [31] concerns the target HLA-A*02:01. Described as above. Particulars: source organism: Sudan ebolavirus.
In test [32] the target is HLA-A*02:01. The test is described as follows: IEDB peptide-MHC binding, purified MHC/direct/fluorescence; filed as Kd, often an IC50 or EC50 that approximates it; ≥ and ≤ were set here for values at or beyond the usual limits of such assays. Particulars: source organism: Homo sapiens.
Test [33] addresses HLA-B*48:01. The test is described as above. The settings on record: source organism: Salmonella enterica subsp. enterica serovar Typhi.
[34] abbreviates: source organism: Vaccinia virus WR.
[35] abbreviates: source organism: Vaccinia virus Copenhagen.
The mark [36] stands for this setting: source organism: Human immunodeficiency virus type 1 BH10.
[37] abbreviates: source organism: Lassa virus Josiah.
[38] abbreviates: source organism: Dengue virus 3 Martinique/1243/1999.
Where [39] appears, read: source organism: Sudan ebolavirus.
The mark [40] stands for this setting: source organism: Dengue virus 4 Philippines/H241/1956.

For EELRSLYNTI, in [1] (source organism: Human immunodeficiency virus 1), the Kd (usually the concentration at which binding is half-saturated) is at least 20000 nM.
DMEISAYRKL: the Kd in [2] (source organism: Homo sapiens) was at least 60000 nM; in test [3] (source organism: Homo sapiens) it was at least 27600 nM; in [4] (source organism: Homo sapiens), at least 58800 nM.
In turn, LYNTAIVGL yielded a Kd in test [5] (source organism: Mycobacterium tuberculosis variant bovis) of 0.8 nM.
Consider FMTNFSMVY, for which the dissociation constant (Kd) in test [6] (setting [34]) came to 2.26 nM.
SFMQEIPTF came in with a Kd in test [5] (source organism: Mammarenavirus juninense) of 0.3 nM.
For FFLQRLYFL, the Kd in test [7] (setting [34]) was 6.79 nM; in [8] (setting [34]) it was 768 nM; in test [6] (setting [34]) it was 805 nM; in test [9] (setting [34]) it was 1210 nM; in [10] (setting [34]) it was at least 38100 nM.
For IYDFYYLDY, the Kd in [11], in test [12] (source organism: Homo sapiens), in test [13], in [14], in [15] and in [16] was at least 20000 nM in each case. In addition, the Kd in [17], in [18], in [19], in test [20] and in [21] was at least 20000 nM throughout.
In turn, MYIFLPVML showed a Kd in test [1] (source organism: Entamoeba dispar SAW760) of 94.1 nM.
With RQVVDFFKF, the Kd in test [6] (setting [34]) was found to be 0.344 nM.
Regarding RVDEIILFK, in [22] (source organism: Bacillus cereus G9241), the Kd was found to be 156 nM.
For the sequence SSVSPPNVL, the Kd in test [6] (setting [34]) came out at 18.3 nM.
The sequence TLYDRYLIH registered a Kd in test [22] (source organism: Coxiella burnetii RSA 331) of 6.9 nM.
Regarding FNVNGSQVY, in test [6] (setting [34]), the Kd is 264 nM.
Regarding ELAYYNSCM, the Kd in test [7] (setting [35]) came to 346 nM; in test [8] (setting [35]), 1450 nM; in test [23] (setting [34]), 3580 nM; in [6] (setting [35]), 4140 nM; in test [9] (setting [35]), 594 nM; in [3] (setting [34]) it was 136 nM. Besides, the results for the dissociation constant (Kd) in test [24] (setting [34]) and in test [10] (setting [35]) were 129 nM and at least 20600 nM, respectively.
On to RGPGRAFVTI, for which the Kd in test [2] (setting [36]) is at least 69800 nM; in test [23] (setting [36]), 5790 nM; in test [3] (setting [36]), 12200 nM; in [24] (setting [36]), at least 70000 nM; in [4] (setting [36]), 4600 nM.
Regarding QLIPCMDVVL, the Kd in test [4] (source organism: Triticum aestivum) came to 384 nM.
For the sequence KKMTCGQPL, the Kd in test [6] (setting [34]) was 1.51 nM.
Consider IMTSYQYLI, for which the Kd in [2] (setting [37]) was 698 nM; in test [23] (setting [37]), 597 nM; in test [3] (setting [37]) it was 78.1 nM; in test [24] (setting [37]), 210 nM; in test [4] (setting [37]), 33.3 nM.
With ISSLGILVF, the Kd in test [6] (setting [34]) came to 81.7 nM.
Turning to QLYSTLLSF, the values for the Kd in test [6] (setting [34]) and in [9] (setting [34]) were 0.565 nM and 3 nM, respectively.
As for VEVEPGSSF, the Kd in test [6] (setting [34]) stood at 1.66 nM.
For FTQTAGPWHL, the values for the Kd in test [25] (source organism: Dengue virus 1 Brazil/97-11/1997) and in test [26] were at least 36500 nM and at least 23500 nM, respectively.
As for FPQSNAPIQD, the Kd in [25] (setting [38]) is at least 69600 nM; in test [27], 1940 nM; in [28] it was 1110 nM.
For the sequence DVALEDNLI, the Kd in test [1] (source organism: Vibrio cholerae V52) came out at 91.9 nM.
TKVMFVIRF: the Kd in [6] (setting [34]) stood at 30.8 nM.
As for AVVVNPSVK, the IC50 (as a rule, the midpoint of a concentration-inhibition curve) in [29] (source organism: West Nile virus) is 2250 nM.
Turning to GLSRYVAR, the Kd in test [4] (source organism: Hepatitis B virus) is at least 50000 nM.
Consider EQYKTESFF, for which the Kd in [6] (setting [34]) is 1.8 nM; in test [9] (setting [34]), 6.57 nM.
In the case of KLVSLGVNAV, the Kd in test [4] (source organism: Hepatitis C virus subtype 1b) worked out at 344 nM.
Regarding TESDMDYHK, the IC50 in test [29] (source organism: Zaire ebolavirus) was at least 174000 nM.
As for ATSYLEYEI, the values for the IC50 in test [30], in test [31] and in test [29] (setting [39]) were 5080 nM, 4960 nM and at least 81400 nM, respectively.
Consider LVAGGLLTV, for which the figures for the Kd in [12] (source organism: dengue virus type 2) and in test [23] (source organism: Dengue virus 2 Jamaica/1409/1983) were at least 20000 nM and 3.95 nM, respectively.
As for TFLQSPPIR, the IC50 is 38800 nM in test [30] and at least 119000 nM in test [29] (setting [39]).
As to TLKDGDFIL, the Kd in test [11], in test [12] (source organism: Homo sapiens), in test [13], in test [14], in test [15] and in test [16] was at least 20000 nM throughout. In addition, the Kd in test [17] was at least 20000 nM; in test [18], at least 20000 nM; in test [20], at least 20000 nM; in test [32], at most 1 nM.
With LDAVIRANN, the IC50 in test [29] (setting [34]) was at least 169000 nM.
On to FGIKCIKKG, for which the IC50 in test [29] (source organism: Vaccinia virus) is at least 290000 nM.
TPTGTVMDI: the Kd in test [25] (setting [38]) amounted to 7240 nM; in test [27] it was 114 nM.
In turn, RAVEPGSML had a Kd in [33] of 712 nM.
For ILHVDILSF, the Kd in test [6] (setting [34]) is 23.8 nM.
For VALLRTYCI, the values for the Kd in [7] (setting [40]) and in test [25] (setting [40]) were 35.5 nM and 392 nM, respectively.
EDNPGFFRV had a Kd in test [1] (source organism: Yersinia pestis CO92) of 296 nM.
Consider RSSRGVQFL, for which the Kd in test [6] (setting [35]) came to 123 nM.
On the same count and under the same terms, in the case of FQQPQFQYL it was 22.6 nM.
